This note sets out measurements from publication PMC2118908.

In this experiment the target is gp41 of HIV-1/IIIB virions (virus stock, culture supernatant) (HIV-1 (isolate IIIB)) (UniProt P04578). The experiment can be described thus: SEC + ELISA.

Consider “gp120 of HIV-1/IIIB virions (virus stock, culture supernatant) (from UniProt P04578 33-511) (natural protein)”, for which the percent of total gp120 virion bound (virus + sCD4) was determined as 24%, the percent of total gp120 virion bound (virus + sCD4 + thrombin) came to 18%, the percent of total gp120 virion bound (virus + thrombin + sCD4) came to 20% and the percent of total gp120 virion bound (virus + thrombin) came to 59%. The percent of total gp120 virion bound (virus alone) was 57%, the percent of total gp120 virion-bound (virus stock) amounted to 55% and the reduction of virion bound gp120 after 10 h at 4C with sCD4 is 10%.
